doi:10.1101/2022.05.14.491971

Molecular target: Mab3862, antitoxin of the type 2 TA class of Mycobacterium abscessus (Mycobacterium abscessus (ATCC 19977))
Test: crystal structure

With “Mab3862, antitoxin of the type 2 TA class of Mycobacterium abscessus (natural protein)” the stoichiometry N was 2.
